Results as given in the supplement of paper PMC12764529.
± gives the half width of the 95% confidence interval.

Key:
[1] = folding stability dG unfold from chymotrypsin proteolysis; higher = more stable
Procedure, shortened: (§1)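 Only designs with AlphaFold2 dimer inter-PAE above 15 were retained; each was a mini-protein under 80 residues with no cysteine, in a PA-tagged cDNA display construct. After digestion with trypsin and chymotrypsin and sequencing, K50 was inferred by Bayesian fitting of counts, and unfolding free energy was derived per protease or combined against a sequence-predicted unfolded-state K50 and a shared folded-state K50.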

[2] = folding stability dG unfold (combined trypsin and chymotrypsin); higher = more stable
Procedure, shortened: as §1

[3] = folding stability dG unfold from trypsin proteolysis; higher = more stable
Procedure, shortened: as §1

Sequence | folding stability dG unfold [1] [kcal/mol] | folding stability dG unfold [2] [kcal/mol] | folding stability dG unfold [3] [kcal/mol]
SAGGSAGGSAGEVVRVYPTPDGTTVTITPHPTTYTVTTTSPDGVPTTTPVSPAEVAALGLSAGGSAGGSAGG [r17_127_JUSTAS] | -0.25 ± 0.3 | -0.0994 ± 0.2 | -0.0385 ± 0.09
SAGGSAGGSAGEWVTIPIKNPEKLKDLPGLPIKDVEPNGGKPTITFNGDDPERIKEALNDSAGGSAGGSAGG [r11_65_TrROS] | 0.498 ± 0.063 | 0.682 ± 0.3 | 0.804 ± 0.057
SAGGSAGGSAGFKSVTIGSGTGGLTLTITDVTTGKNTVVNATSLEEAEKIGKEKGWKIILSSAGGSAGGSAG [r3_67_JUSTAS] | -0.281 ± 0.4 | 0.305 ± 0.15 | 0.604 ± 0.07
SAGGSAGGSAGGAAPDDVKIEIEWDVGVMTMEMMNPGGQPHKMYMIMVSLKIEIEPNADSAGGSAGGSAGGS [r10_1212_TrROS] | 5.09 ± 0.18 | 4.95 ± 0.18 | 3.74 ± 0.25
SAGGSAGGSAGGAMAPDEPVERVEVTYKTGRLTFPGKPVLKKEKVVLKFTLTVTDPALLSAGGSAGGSAGGS [r10_745_JUSTAS] | -0.0228 ± 0.28 | 0.0101 ± 0.15 | -0.234 ± 0.33
SAGGSAGGSAGGAMTVETVELPSGEVVTLEYDPASGRVLTTVETPDSVERTEDPLEPPAASAGGSAGGSAGG [r7_63_JUSTAS] | -0.403 ± 0.11 | -0.0846 ± 0.19 | 0.302 ± 0.015
SAGGSAGGSAGGAPDLSLPDVRPRVLVRNPATGKWYEFTSLEELEREIKSGRAEVLEISSAGGSAGGSAGGS [r10_520_TrMRF] | 0.704 ± 0.11 | 0.573 ± 0.16 | 0.327 ± 0.088
SAGGSAGGSAGGAPLVEVEEVETRRVKDPATKRWYRRTRVRVRNKETGEWYELEFVEPLSAGGSAGGSAGGS [r10_535_TrROS_Hall] | 2.599 ± 0.02 | 2.54 ± 0.048 | 2.49 ± 0.025
SAGGSAGGSAGGDAPNTTVTVTLKAEVYYDPSTGALVVKVTAYFPATNTTVTLEFTFPLSAGGSAGGSAGGS [r10_187_TrMRF] | 4.66 ± 0.25 | 4.76 ± 0.72 | 3.66 ± 0.24
SAGGSAGGSAGGDDDWRIMINIEIWPYPNYVRIRFPIMIIPPDGKLIGSVEVTFWIPANDSAGGSAGGSAGG [r7_812_TrROS] | 3.84 ± 0.37 | 3.7 ± 0.38 | 3.2 ± 0.18
SAGGSAGGSAGGDDNDKEPIGEVTVEVIIPPQIPIRIRWDIYKDPPNGNAMMNMDIDIHSAGGSAGGSAGGS [r10_6_TrROS] | 0.968 ± 0.12 | 0.719 ± 0.22 | 0.638 ± 0.12
SAGGSAGGSAGGDKNGKKELRPEVKIKVKIEAEIEPFRYPNNGMPMWILKISIEITSIDSAGGSAGGSAGGS [r10_877_TrROS] | 4.75 ± 0.18 | 4.5 ± 0.19 | 2.96 ± 0.18
SAGGSAGGSAGGDLNDAEIIDIYRDPDSDYYYAVFRGPDGGTYLVRFDPNSDRVEVIPLSAGGSAGGSAGGS [r10_674_TrMRF] | 3.387 ± 0.024 | 3.05 ± 0.059 | 2.27 ± 0.1
SAGGSAGGSAGGDNTKTLVLVIKVDENVTPEEIKKKLKDLGFKNVKIEKVGNYAVVTVSSAGGSAGGSAGGS [r10_868_TrMRF] | 3.149 ± 0.03 | 2.92 ± 0.052 | 2.58 ± 0.074
SAGGSAGGSAGGDWKMIEFYIPIEPDEPITIEIPDGVRIQIWRVDGYYKVTIMIPLEDISAGGSAGGSAGGS [r10_355_TrROS] | 3.71 ± 0.083 | 3.17 ± 0.18 | 2.42 ± 0.14
SAGGSAGGSAGGEEPVTFMVRIPIRRRDPDGNPEPVAEIDINVTMPPEDAERIIKELIKSAGGSAGGSAGGS [r10_574_TrROS] | -0.547 ± 0.76 | -0.326 ± 0.22 | -0.245 ± 0.34
SAGGSAGGSAGGEEVTIVVKSKEDIEALLPPGWKVTKIEEIYVDKETGEKYYKITVKKESAGGSAGGSAGGS [r10_256_TrROS_Hall] | 3.88 ± 0.062 | 4.06 ± 0.12 | 4.23 ± 0.17
SAGGSAGGSAGGEIKGKKFKIVKIVEVRYDKETKEFYVRIYIEDTNEIITVRLEDLPEELSAGGSAGGSAGG [r7_304_TrROS_Hall] | 2.29 ± 0.025 | 2.25 ± 0.18 | 1.83 ± 0.077
SAGGSAGGSAGGEIKSGDKVVLVFNEDGKGYKAYYEEELEKLLKEDPKIKKVLVVDVPAESAGGSAGGSAGG [r7_118_TrMRF] | -1.04 ± 0.77 | -0.429 ± 0.22 | -0.173 ± 0.064
SAGGSAGGSAGGEIPIKIRPYDPKDGEPKDEHPIPFDTPNGNSLDEIAKQLPPDHFEVDISAGGSAGGSAGG [r17_339_TrROS] | 1.11 ± 0.018 | 0.875 ± 0.059 | 0.382 ± 0.067
SAGGSAGGSAGGEKKKIAKKIKEELEKKGIKVKKVETSEDYIYITFEDGSKKKIKIDKGSAGGSAGGSAGGS [r10_169_TrMRF] | 1.6 ± 0.18 | 1.74 ± 0.2 | 2.1 ± 0.16

Sequence | folding stability dG unfold [1] [kcal/mol] | folding stability dG unfold [2] [kcal/mol] | folding stability dG unfold [3] [kcal/mol]
SAGGSAGGSAGGELKAKFETFPSPYGKVILAEAEFEEPNLLAAIVIDEDGVPHLLVVSPDSAGGSAGGSAGG [r7_187_TrMRF] | 0.858 ± 0.076 | 0.952 ± 0.12 | 1.13 ± 0.064
SAGGSAGGSAGGELVLKIKVKPGEKVKLKLKLFDKNGKLVEEFEVEVEVVKEGDTLYIRLSAGGSAGGSAGG [r7_63_TrROS_Hall] | 4.03 ± 0.052 | 3.67 ± 0.11 | 2.69 ± 0.064
SAGGSAGGSAGGENDWIPIRMEMTFKLPNGVKITIKMEMWVQPDGDILGMRIHDIEIEVPSAGGSAGGSAGG [r7_356_TrROS] | 4.75 ± 0.12 | 4.54 ± 0.21 | 3.6 ± 0.21
SAGGSAGGSAGGENPEYKPKLLVLVKLEVNGEYYYREFETLEELENYNDPNLKVVAVADLSAGGSAGGSAGG [r7_793_TrMRF] | 0.653 ± 0.11 | 1.02 ± 0.083 | 1.27 ± 0.033
SAGGSAGGSAGGEPELVFKVRVRTKDGRELEIEVSAEDLEKLLEALPDIEEVEIEEVEPSAGGSAGGSAGGS [r10_437_TrROS_Hall] | 2.68 ± 0.071 | 2.6 ± 0.14 | 2.39 ± 0.087
SAGGSAGGSAGGFRIKITEIWPISMEMRKPDPENGKWKEQPMTIMIIRIKIENLPPGAKISAGGSAGGSAGG [r17_530_TrROS] | 3.9 ± 0.079 | 3.41 ± 0.1 | 2.54 ± 0.048
SAGGSAGGSAGGFTVTVVEPVDPNDPAFKKLMEERGLPPEEVVATKTLTADSEEEIAALLSAGGSAGGSAGG [r11_83_JUSTAS] | 0.219 ± 0.15 | 0.238 ± 0.12 | 0.283 ± 0.099
SAGGSAGGSAGGGELKELLKKNPGPLLLERPENTVSLILYDPKTGTYTVLTFSPTEPIPLSAGGSAGGSAGG [r7_84_JUSTAS] | 1.69 ± 0.11 | 1.52 ± 0.14 | 1.27 ± 0.056
SAGGSAGGSAGGGITIKGPGSVTVTVPASDVASISVDPATGTVTVEIPATGTTLTVPPASAGGSAGGSAGGS [r10_200_JUSTAS] | 0.238 ± 0.033 | 0.604 ± 0.07 | 1.03 ± 0.037
SAGGSAGGSAGGGKLRIKLYHPETGKISEIEVEVPDKPLEEVLEELEKELGVEVVDASLESAGGSAGGSAGG [r7_590_TrMRF] | 1.68 ± 0.045 | 1.44 ± 0.14 | 0.941 ± 0.054
SAGGSAGGSAGGGKTVVYRFPASLTPEQAVDEITAKVPPNYPVIVEYHPESGTFVAYVPSAGGSAGGSAGGS [r10_163_TrMRF] | 0.743 ± 0.29 | 0.666 ± 0.15 | 0.725 ± 0.1
SAGGSAGGSAGGGLEEIKEAIKKLPENVKEITIKLKDGSTIKIRVEKDKDGKYKITIEPSAGGSAGGSAGGS [r10_1017_TrROS_Hall] | 2.68 ± 0.15 | 2.5 ± 0.22 | 2.41 ± 0.3
SAGGSAGGSAGGGLVPIPVNAILLDENGVPKGTFDGYPLLKAGIPLEEFAKKYGFKVETSAGGSAGGSAGGS [r10_153_TrMRF] | -0.57 ± 0.24 | -0.552 ± 0.16 | -1.08 ± 0.37
SAGGSAGGSAGGGMAYTVETEVTLTPDGTRVVRTTVTIEDTEVEETHVTPVAPAAPEGLSAGGSAGGSAGGS [r10_898_JUSTAS] | -0.079 ± 0.06 | -0.231 ± 0.081 | -0.806 ± 0.17
SAGGSAGGSAGGGMIPVSTSETVVPGPSRLVRRTTTTYRDPVTGKLYTTSSTTVLPPAASAGGSAGGSAGGS [r10_190_JUSTAS] | 1.44 ± 0.064 | 0.963 ± 0.045 | -0.396 ± 0.12
SAGGSAGGSAGGGMKVEKEESPDSTVTETITDPSSENTTIVTKEVLPDGSLKVTETKELPSAGGSAGGSAGG [r7_828_JUSTAS] | 0.987 ± 0.06 | 0.717 ± 0.14 | -0.224 ± 0.087
SAGGSAGGSAGGGMPSYVTKTTTTTVKITNTTTGGNSTTTTTSTVTVTTTTLLPPGLLASAGGSAGGSAGGS [r10_300_JUSTAS] | 1.2 ± 0.028 | 0.835 ± 0.074 | -0.147 ± 0.052
SAGGSAGGSAGGGMPVEMKITLYDPDGTKIGEYTLKVKSEEELKKAVEEKGYNYEVDKESAGGSAGGSAGGS [r10_958_JUSTAS] | 0.17 ± 0.16 | 0.29 ± 0.1 | 0.198 ± 0.067
SAGGSAGGSAGGGMRFTVEVEPGKVSYSPGIVNKNTPGSSVSEIITVTVVETNPEKLLLSAGGSAGGSAGGS [r10_654_JUSTAS] | 0.638 ± 0.093 | 0.211 ± 0.19 | -0.499 ± 0.29
SAGGSAGGSAGGGMTITTTSSVSESDGGLTLSTTTTAFDPVTGTWTPLTTTTTTLPPTTSAGGSAGGSAGGS [r10_51_JUSTAS] | 0.778 ± 0.041 | 1.24 ± 0.053 | 1.65 ± 0.065
SAGGSAGGSAGGGMTPVTTTTTVTVSPDATPVNFTTPDGTTVTVTPVPSSDTATVTTTVSSAGGSAGGSAGG [r7_796_JUSTAS] | 0.104 ± 0.03 | 0.724 ± 0.06 | 1.24 ± 0.06
